Literature values in patent US20040253306A1, “Sustained release formulations for nifedipine dextromethorphan, and danazol” (priority 2001, published 2004).

Settings: oral; free vs liposomes having ceramides

For superoxide dismutase, the bioavailability is given as 14%.
